Data: patent publication US20130129753A1 (Pfizer, published 2013)

B1: IL13Ra2-AB08-v1010-hG1-(C)_mcValCitPABC-#54 (antibody, V domains shown)
VH: EVQLVESGGGLVQPGGSLRLSCAASGFTFSRNGMSWVRQAPGKGLEWVATVSSGGSYIYYADSVKGRFTISRDNAKNSLYLQMNSLRAEDTAVYYCARQGTTALATRFFDVWGQGTLVTVSS
VL: DIQMTQSPSSLSASVGDRVTITCKASQDVGTAVAWYQQKPGKAPKLLIYSASYRSTGVPSRFSGSGSGTDFTLTISSLQPEDFATYYCQHHYSAPWTFGGGTKVEIKT
modifications: drug-linker mcValCitPABC-#54 on cysteine (C), positions not given; drug-linker mcValCitPABC-#54 on cysteine (C), positions not given; DAR 3.2 per antibody
B2: IL13Ra2-AB08-v1010-hG1-(C)_Mal(H2O)Peg6C2-0#118 (antibody, V domains shown)
VH: B1 VH
VL: B1 VL
modifications: drug-linker Mal(H2O)Peg6C2-0#118 on cysteine (C), positions not given; drug-linker Mal(H2O)Peg6C2-0#118 on cysteine (C), positions not given; DAR 2.9 per antibody
B3: IL13Ra2-AB08-v1010-hG1-(C)_mcValCitPABC-#226 (antibody, V domains shown)
VH: B1 VH
VL: B1 VL
modifications: drug-linker mcValCitPABC-#226 on cysteine (C), positions not given; drug-linker mcValCitPABC-#226 on cysteine (C), positions not given; DAR 3 per antibody
B4: IL13Ra2-AB08-v1010-hG1-(C)_mc-#115 (antibody, V domains shown)
VH: B1 VH
VL: B1 VL
modifications: drug-linker mc-#115 on cysteine (C), positions not given; drug-linker mc-#115 on cysteine (C), positions not given; DAR 4.3 per antibody
B5: IL13Ra2-AB08-v1010-hG1-(C)_mc-#117 (antibody, V domains shown)
VH: B1 VH
VL: B1 VL
modifications: drug-linker mc-#117 on cysteine (C), positions not given; drug-linker mc-#117 on cysteine (C), positions not given; DAR 3.3 per antibody
B6: IL13Ra2-AB08-v1010-hG1-(C)_mc-0#118 (antibody, V domains shown)
VH: B1 VH
VL: B1 VL
modifications: drug-linker mc-0#118 on cysteine (C), positions not given; drug-linker mc-0#118 on cysteine (C), positions not given; DAR 3.2 per antibody
B7: IL13Ra2-AB08-v1010-hG1-(C)_mcValCitPABC-#112 (antibody, V domains shown)
VH: B1 VH
VL: B1 VL
modifications: drug-linker mcValCitPABC-#112 on cysteine (C), positions not given; drug-linker mcValCitPABC-#112 on cysteine (C), positions not given; DAR 4 per antibody
B8: humanized antibody hu08 (antibody, V domains shown)
VH: B1 VH
VL: B1 VL
notes: Unconjugated antibody; also called hu08v1.0/1.0; IL13Ra2-AB08-v1010-hG1
B9: IL13Ra2-AB08-v1010-hG1-(C)_MalPeg6C2-#117 (antibody, V domains shown)
VH: B1 VH
VL: B1 VL
modifications: drug-linker MalPeg6C2-#117 on cysteine (C), positions not given; drug-linker MalPeg6C2-#117 on cysteine (C), positions not given; DAR 3.3 per antibody
B10: Notch-75-v1913-hG1-(C)_mcValCitPABC-#54 (antibody, human IgG1, kappa, V domains shown)
VH: EVQLVESGGGLVQPGGSLRLSCAASGYAFTDYWMTWVRQAPGKGLEWVAEISPNSGGTNFNEKFKGRFTISVDNAKNSLYLQMNSLRAEDTAVYYCARGEIRYNWFAYWGQGTLVTVSS
VL: DIQMTQSPSSLSASVGDRVTITCKASQNVGNNIAWYQQKPGKAPKLLIYYASNRYTGVPSRFSGSGYGTDFTLTISSLQPEDFATYYCQRLYNSPFTFGGGTKVEIKR
modifications: drug-linker mcValCitPABC-#54 on cysteine (C), positions not given; drug-linker mcValCitPABC-#54 on cysteine (C), positions not given; DAR 3.8 per antibody
B11: Notch-75-v1913-hG1-(C)_mcValCitPABC-#112 (antibody, human IgG1, kappa, V domains shown)
VH: B10 VH
VL: B10 VL
modifications: drug-linker mcValCitPABC-#112 on cysteine (C), positions not given; drug-linker mcValCitPABC-#112 on cysteine (C), positions not given; DAR 4.2 per antibody
B12: Notch-28-v1010-hG1-(C)_mcValCitPABC-#54 (antibody, human IgG1, kappa, V domains shown)
VH: EVQLVESGGGLVQPGGSLRLSCAASGFTFRDYGMTWVRQAPGKGLEWVAYISSGSNYIYYAEAVKGRFTISRDNAKNSLYLQMNSLRAEDTAVYYCARRGPFVLDAWGQGTLVTVSS
VL: DIQMTQSPSSLSASVGDRVTITCKASQSINRYLHWYQQKPGKAPKLLIYNANGLQTGVPSRFSGSGSGTDFTLTISSLQPEDFATYYCLQHNTWPDTFGGGTKVEIKR
modifications: drug-linker mcValCitPABC-#54 on cysteine (C), positions not given; drug-linker mcValCitPABC-#54 on cysteine (C), positions not given; DAR 3.9 per antibody
B13: Notch-28-v1010-hG1-(C)_mcValCitPABC-#112 (antibody, human IgG1, kappa, V domains shown)
VH: B12 VH
VL: B12 VL
modifications: drug-linker mcValCitPABC-#112 on cysteine (C), positions not given; drug-linker mcValCitPABC-#112 on cysteine (C), positions not given; DAR 3.9 per antibody

Legend:
IL-13Rα2 receptor [1] = target: T1, IL-13Rα2 receptor (human, UniProt Q14627 27-380); assay: cell-based or functional assay
T1 sequence (looked up): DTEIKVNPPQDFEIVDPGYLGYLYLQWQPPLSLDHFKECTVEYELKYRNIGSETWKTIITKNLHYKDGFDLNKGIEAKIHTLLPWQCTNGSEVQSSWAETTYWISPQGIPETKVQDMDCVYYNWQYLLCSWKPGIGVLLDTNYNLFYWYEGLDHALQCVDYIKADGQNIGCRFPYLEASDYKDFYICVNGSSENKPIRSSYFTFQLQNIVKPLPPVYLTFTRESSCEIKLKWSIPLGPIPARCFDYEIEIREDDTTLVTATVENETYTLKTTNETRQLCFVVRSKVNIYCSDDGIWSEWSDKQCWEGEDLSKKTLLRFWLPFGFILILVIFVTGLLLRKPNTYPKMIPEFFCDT

IL-13Rα2 receptor [2] = target: T1, IL-13Rα2 receptor; assay: statement in the example section; no binding assay described
Notch receptor = Notch receptor (human); assay: cell-based or functional assay

| Binder | IC50 (ng Ab/mL), viability of A375 cells (IL-13Rα2 receptor [1]) | IC50 (ng Ab/mL), viability of PC3MM2 cells (IL-13Rα2 receptor [1]) | IC50 (ng Ab/mL), MTS viability of HCC2429 cells (repeat 1) (Notch receptor) | IC50 (ng Ab/mL), MTS viability of HCC2429 cells (repeat 2) (Notch receptor) | IC50 (ng Ab/mL), MTS viability of MDA-MB-468/hNotch cells (repeat 1) (Notch receptor) | IC50 (ng Ab/mL), MTS viability of MDA-MB-468/hNotch cells (repeat 2) (Notch receptor) | IC50 (ng Ab/mL), MTS viability of OVCAR3 cells (Notch receptor) | further results |
| --- | --- | --- | --- | --- | --- | --- | --- | --- |
| B1 | 3.8 ng Ab/mL | 2.5 ng Ab/mL |  |  |  |  |  |  |
| B2 | 4.9 ng Ab/mL | 2.9 ng Ab/mL |  |  |  |  |  |  |
| B3 | 2.9 ng Ab/mL | 1.5 ng Ab/mL |  |  |  |  |  |  |
| B4 | 2.2 ng Ab/mL | 1.2 ng Ab/mL |  |  |  |  |  |  |
| B5 | 2.4 ng Ab/mL | 1.1 ng Ab/mL |  |  |  |  |  |  |
| B6 | 2.1 ng Ab/mL | 1.3 ng Ab/mL |  |  |  |  |  |  |
| B7 | 2.2 ng Ab/mL | 1.2 ng Ab/mL |  |  |  |  |  |  |
| B8 |  |  |  |  |  |  |  | binding result (IL-13Rα2 receptor [2]): binds |
| B9 | 3.4 ng Ab/mL | 3.5 ng Ab/mL |  |  |  |  |  |  |
| B10 |  |  | 611 ng Ab/mL | 3300 ng Ab/mL | 37 ng Ab/mL | 36 ng Ab/mL | 515 ng Ab/mL | IC50 (ng Ab/mL), MTS viability of MDA-MB-468 cells (Notch receptor): 7000 ng Ab/mL; IC50 (ng Ab/mL), MTS viability of U2OS/hNotch cells (Notch receptor): 523 ng Ab/mL |
| B11 |  |  | 214 ng Ab/mL | 630 ng Ab/mL | 26 ng Ab/mL | 25 ng Ab/mL | 254 ng Ab/mL |  |
| B12 |  |  | 473 ng Ab/mL | 2940 ng Ab/mL | 3.2 ng Ab/mL | 3 ng Ab/mL | 306 ng Ab/mL | IC50 (ng Ab/mL), MTS viability of MDA-MB-468 cells (Notch receptor): 6540 ng Ab/mL; IC50 (ng Ab/mL), MTS viability of U2OS/hNotch cells (Notch receptor): 1330 ng Ab/mL |
| B13 |  |  | 148 ng Ab/mL | 2050 ng Ab/mL | 1.3 ng Ab/mL | 3 ng Ab/mL | 17 ng Ab/mL |  |
